Test system: MS2 coat protein
Test: apparent KD of MS2 coat protein; higher = weaker reporter binding
Settings: Eterna round: R107
Protocol: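 RNA-MaP round R107: designed RNA switches with theophylline, tryptophan, arginine or FMN aptamers are transcribed on-chip within common flanks. They are titrated with SNAP-549-labelled MS2 coat protein in RNA-MaP buffer (100 mM Tris pH 7.5, 80 mM KCl, 4 mM MgCl2), without ligand or with the indicated ligand. Median apparent KD per design.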

[1] = input ligand: theophylline 20 uM
[2] = input ligand: theophylline 2 mM
[3] = input ligand: tryptophan 2.4 mM

Row | Sequence | apparent KD of MS2 coat protein (input ligand: arginine 13.2 mM) [nM] | apparent KD of MS2 coat protein [1] [nM] | apparent KD of MS2 coat protein [2] [nM] | apparent KD of MS2 coat protein (input ligand: none) [nM] | apparent KD of MS2 coat protein [3] [nM]
1 | AAAGCCACUUCGGCCGCCACUACAACAUGAGGAUCACCCAUGUACCUCGUGUACGGUCCGAGGAGUAGGACCGGGAAGUGGUGGA [(T1'')-(Trp1)-(Ms2)-(M')-(T2')-(M'')-(Trp2)-(T1')] | 94 | 193 | 175 | – | –
2 | UAGCGAUAAUCUGAUACCAGACGUGUACUCUCCUCAGACAUGAGCAUCAGCCAUGUAUGCGUCCCUUGGCAGCAGAGAUAGGAGA [Theo B Ex t5b] | 16.9 | 24.5 | 36.7 | 16.1 | 16.9
3 | AGUUUGGACUCGGCCGCCACUCGUGAUGCUUUGGCACAUGAGGAUCACCCAUGUGGUCGGCCUUAGAGGACCGGGAGUACCAGCC [Edesceso] | 82.5 | 297 | 342 | – | –
4 | ACGGGCAUGGCGGCCGCCACUGGUUGGCGUGCGGAUGAGGGAACAUGAGGAUCACCCAUGUUGGUUAGGACCGGGCUGGCGUCGA [kkymullin] | 12.6 | 49.8 | 16 | 15.4 | 18
5 | UCGCUCUGGGUGAGAUCCGGAGAUAUGGAAGGAGCGCUGAUGCCAGCAGGUAGGUCGCCAACGGACAUGAGGAUCACCCAUGUAC [Same State - Arginine A (Freestyle 10)] | 25 | 64.2 | 34.5 | 52.4 | 39.8
6 | UCUUGGUCCGCAAGGACCUUGAGUUGCGAUACCAGCACGGUAACGUGCCCUUGGCAGCGCACAUGAGGAUCACCCAUGUGGUGUU [#1 Exclusion - Theophylline A Attempt #16 (HarryS)] | 82.3 | 348 | – | – | 170
7 | GUUGAGACCUCGGCCGCCACUCGCCAUGAGGAUCUCCCAUGUAACAUGAGGAUCACCCAUGUACUGAGGACCGGGAGGUCCUAGU [Same State Tryptophan B GF 15] | 17.2 | 34 | 33.5 | 17.4 | 65.6
8 | ACUGGACAUGAGGAUCACCCAUGUGGCGAUACCAGUUUCAGCGGGAACCCUUGGCAGCGCGGUGCCGGCCAUAGAAGUUCUGGGA [theeternabot_sameState_MS2_Theo_A_39] | 42.1 | 56.1 | – | – | 40.6
9 | UGUAAUGUGGGAAGGAGCGCAUACUUCACAUGAGGAUCACCCAUGUCAAGACGUGAGUCAGUGCAGGUAGGUCGCCUAGUUUAGA [Same State - Arginine B (Freestyle 18)] | 37.2 | 75.4 | 88.9 | 97 | 42
10 | AUCGUACCUAAUGAUACCAGCAAGUGAUCAUAACAUGAGGAUCACCCAUGUAAUCAGUGAUGCCCUUGGCAGCAUAAUCGUUACA [Same State - Theophylline B (Freestyle 2)] | 94.7 | 218 | – | – | 169
11 | UUCGUAUUGUCGGCCGCCACUGCAACAUGAGGAUCACCCAUGUAAAUUUGGGAGUAGUUAUAUUACAGGACCGGGACAAUAGUAA [JR_ExcTryptoB_Sub019] | 51.8 | 113 | 140 | – | –
12 | GCUAGUGGCAGAAGGAGCGACAUUUAUAGUGGUCGAUACAUGAGGAUCACCCAUGUACUAUGUCAGGUAGGUCGCUGCCACUAGC [EAB NP+V+V2 #5] | 31.6 | 44.8 | 34 | 35.1 | 32.5
13 | UCGUGUCUAUUGGUUUAGCUUUAAUCGUUACGAGGACCGGUACGGCCGCCACUCGAUUUAACAUGAGGAUCACCCAUGUACUCUC [JR_ExcTryptoA_Sub012] | 17.5 | 26.6 | 21.4 | – | –
14 | GUCAGUGACUGAAGGAGCGACAUGAGGAUCACCCAUGUCUCCCGUUAUGGGAGUUCCUUAGGUCAGGUAGGUCGCAGUCACUGAC [#1 Exclusion - Arginine B Attempt #29 (Inspired by Omei)] | 174 | 163 | 188 | 123 | 95.7
15 | UAUAUAUAUAUGGAUACCAGCAGAGAAAACGUUUAUCCUAACAUGAGGAUCACCCAUGUAUGCCCUUGGCAGCUGUAUAUAUAUA [8.G] | 21.4 | 29.5 | – | – | 24.7
16 | UGUAUGGACUGAAGGAGCGGGUUGAUAACCUGAGGAUCAUCCAGGUAAAAGGCGAAAGCCGCCCAGGUAGGUCGCAGUCCAUACU | 174 | 227 | 280 | 158 | 237
17 | AGCAACAAGUCGGCCGCCACUCUUUUAACAUGAGGAUCACCCAUGUUUAUAUCAUGGUUUUAAUAGAGGACCGGGACAGUUGCAU [JR_ExcTryptoB_Sub005] | 26.3 | 37 | 43.2 | – | –
18 | UGACAUUGCUGCGAUACCAGACAUGAGGAUCACCCAUGUACCAAGGUAACCGAAAGGCAUGUCCCUUGGCAGCGCAGCAAUGUCU [MAT - Exclusion Theophlline B - Mod of Eli - D13] | 12.8 | 21 | – | – | 12.2
19 | AUGCAGGGCAACAGCCACUGUCACGGUGAUACCAGUACCCGUGCGUACCCUUGGCAGCAUCGUGGUACAUGAGGAUCACCCAUGU [Enatleceed] | 36.8 | 503 | – | – | 546
20 | UGUAUGGACUGAAGGAGCGCCUCAAAAUAACUUGAGGAACACCCAAGUAAGGCGAAAGCCGGGCAGGUAGGUCGCAGUCCAUACU [ArgBX 3] | 31 | 23 | 46.1 | 24.6 | 34.6
21 | UCAGCACAUGAGGAUCACCCAUGUCGUGAUACCAGCCUGUGCGAAGGCCCUUGGCAGCACAGUCCCGAUUUGCUUAUAUGCACUU [theeternabot_sameState_MS2_Theo_A_48] | 32.4 | 61 | – | – | 34.4
22 | AGCACGGUGAUGGUAGCCGGACGAUAAGUACGAGGACCGGUACGGCCGCCACUCGAAGUCCUACGACAUGAGGAUCACCCAUGUA [Same State Trp A GF11] | 30.4 | 47 | 73.6 | – | –
23 | GGUUCAUCGUCGGCCGCCACUCACAUGAGGUGGAGCUGUAAACAUGAGGAUCACCCAUGUUGUUAGAGGACCGGGACGUGACGGC [theeternabot_exclusion_MS2_Trp_B_6] | 25.5 | 43.4 | 42.1 | – | –
24 | GGACUAACCAGAAGGAGCGGCACGCAGAAACUGCAAAAUCCUCCGCACGAGGAUCACCCGUGUCAGGUAGGUCGCUGGUUAGUCG [ArgBX 28] | 36.7 | 39.8 | 37.8 | 32.2 | 33.8
25 | AAUAACAAGAGGAUCACCCUUGUAAAAGAUACCAGAGUGAUGAUCCUCCCUUGGCAGCUUAACGCUGAUUGAUUACAAUCAGCGA | 27 | 81.8 | 142 | 35.5 | 32
26 | UGUGUCGUCUGAAGGAGCGGCUCUUGAUCCUCGUGGGACAUGAGGAUCACCCAUGUCUCGAGCCAGGUAGGUCGCAGGCGGCACA [#27 Exclusion - Arginine B] | 31.3 | 32.6 | 23.8 | 26 | 20.7
27 | AUAACAUGAGGAUCACCCAUGUAAGCAGAUACCAGCUAGGAAACUAGCCCUUGGCAGCUGCAAUCAUGGGUGUUUGCAGCUGCAA [(M1)-(M2)-(T1)-(T2)-(M)'-(T)'_Design2] | 21.2 | 36.9 | 19.9 | 18.1 | 13
28 | CUAAGAGCGGCGGCCGCCACUGGUAACCAAGAGGCGGAGCCUCUGACAUGAGGAUCACCCAUGUUCAGGACCGGGUCGUCUUAGA [#07 Same State - Tryptophan B] | 7.23 | 13.6 | 18.5 | 12.2 | 10.9
29 | ACAUGAGGAUCACCCAUGUUCCUCGCCGAUACCAGUGAAGAAGUACGCCCUUGGCAGCGGAAAGAGUAUUUUGGAGAUGAGGUAC [6.Y] | 57 | 94.3 | – | – | 88.3

Source: the supplement of paper PMC9170038
